Laboratory results as given in the supplement of paper PMC10567573.

B1: ZER1 (parent)
chain: PILRLLPQGISPVSQHWATWALYN

Variants of: B1
Test: protein stability index of a GFP-peptide fusion (GPS, HEK-293T) (PSI 1-6); higher = more stable
Conditions: c terminus: a fixed tail appended
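Also: lentivirally expressed fusions sorted by FACS into six bins by GFP to DsRed ratio, PSI derived from sequencing read proportions per bin multiplied by bin number.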

| Variant | protein stability index |
| --- | --- |
| PILRLLCQGISPVSQHWATWALYN [P7C] | 2.12 |
| PILRLLDQGISPVSQHWATWALYN [P7D] | 2.52 |
| PILRLLEQGISPVSQHWATWALYN [P7E] | 3.19 |
| PILRLLFQGISPVSQHWATWALYN [P7F] | 2.8 |
| PILRLLHQGISPVSQHWATWALYN [P7H] | 5.21 |
| PILRLLMQGISPVSQHWATWALYN [P7M] | 3.56 |
| PILRLLRQGISPVSQHWATWALYN [P7R] | 1.55 |
| PILRLLTQGISPVSQHWATWALYN [P7T] | 3.41 |
| PILRLLVQGISPVSQHWATWALYN [P7V] | 1.65 |
| PILRLLWQGISPVSQHWATWALYN [P7W] | 1.97 |
| PILRLLPFGISPVSQHWATWALYN [Q8F] | 2.58 |
| PILRLLPHGISPVSQHWATWALYN [Q8H] | 1.5 |
| PILRLLPKGISPVSQHWATWALYN [Q8K] | 2.29 |
| PILRLLPRGISPVSQHWATWALYN [Q8R] | 3.32 |
| PILRLLPWGISPVSQHWATWALYN [Q8W] | 3.15 |
| PILRLLPYGISPVSQHWATWALYN [Q8Y] | 2.12 |
| PILRLLPQFISPVSQHWATWALYN [G9F] | 2.78 |
| PILRLLPQHISPVSQHWATWALYN [G9H] | 5.34 |
| PILRLLPQIISPVSQHWATWALYN [G9I] | 2.95 |
| PILRLLPQKISPVSQHWATWALYN [G9K] | 3.57 |
| PILRLLPQNISPVSQHWATWALYN [G9N] | 2.01 |
| PILRLLPQQISPVSQHWATWALYN [G9Q] | 1.97 |
| PILRLLPQSISPVSQHWATWALYN [G9S] | 2.01 |
| PILRLLPQTISPVSQHWATWALYN [G9T] | 2.8 |

| Variant | protein stability index |
| --- | --- |
| PILRLLPQGDSPVSQHWATWALYN [I10D] | 1.76 |
| PILRLLPQGESPVSQHWATWALYN [I10E] | 3.31 |
| PILRLLPQGHSPVSQHWATWALYN [I10H] | 2.79 |
| PILRLLPQGLSPVSQHWATWALYN [I10L] | 2.61 |
| PILRLLPQGMSPVSQHWATWALYN [I10M] | 3.55 |
| PILRLLPQGNSPVSQHWATWALYN [I10N] | 2.41 |
| PILRLLPQGIAPVSQHWATWALYN [S11A] | 2.83 |
| PILRLLPQGICPVSQHWATWALYN [S11C] | 3.31 |
| PILRLLPQGIDPVSQHWATWALYN [S11D] | 3.26 |
| PILRLLPQGIEPVSQHWATWALYN [S11E] | 3.05 |
| PILRLLPQGIGPVSQHWATWALYN [S11G] | 2.17 |
| PILRLLPQGIHPVSQHWATWALYN [S11H] | 2.03 |
| PILRLLPQGIIPVSQHWATWALYN [S11I] | 2.53 |
| PILRLLPQGILPVSQHWATWALYN [S11L] | 2.53 |
| PILRLLPQGIMPVSQHWATWALYN [S11M] | 1.99 |
| PILRLLPQGIPPVSQHWATWALYN [S11P] | 1.77 |
| PILRLLPQGIRPVSQHWATWALYN [S11R] | 3.06 |
| PILRLLPQGIVPVSQHWATWALYN [S11V] | 2.22 |
| PILRLLPQGIWPVSQHWATWALYN [S11W] | 1.59 |
| PILRLLPQGISAVSQHWATWALYN [P12A] | 2.33 |
| PILRLLPQGISFVSQHWATWALYN [P12F] | 3.32 |
| PILRLLPQGISHVSQHWATWALYN [P12H] | 3.2 |
| PILRLLPQGISIVSQHWATWALYN [P12I] | 3.2 |
| PILRLLPQGISKVSQHWATWALYN [P12K] | 2.87 |

| Variant | protein stability index |
| --- | --- |
| PILRLLPQGISNVSQHWATWALYN [P12N] | 1.85 |
| PILRLLPQGISQVSQHWATWALYN [P12Q] | 3.42 |
| PILRLLPQGISVVSQHWATWALYN [P12V] | 2.1 |
| PILRLLPQGISYVSQHWATWALYN [P12Y] | 3.44 |
| PILRLLPQGISPASQHWATWALYN [V13A] | 4.06 |
| PILRLLPQGISPCSQHWATWALYN [V13C] | 2.48 |
| PILRLLPQGISPDSQHWATWALYN [V13D] | 2.84 |
| PILRLLPQGISPFSQHWATWALYN [V13F] | 1.88 |
| PILRLLPQGISPGSQHWATWALYN [V13G] | 1.87 |
| PILRLLPQGISPISQHWATWALYN [V13I] | 1.68 |
| PILRLLPQGISPLSQHWATWALYN [V13L] | 2.34 |
| PILRLLPQGISPNSQHWATWALYN [V13N] | 1.8 |
| PILRLLPQGISPSSQHWATWALYN [V13S] | 2.54 |
| PILRLLPQGISPTSQHWATWALYN [V13T] | 3.01 |
| PILRLLPQGISPWSQHWATWALYN [V13W] | 1.54 |
| PILRLLPQGISPVCQHWATWALYN [S14C] | 2.98 |
| PILRLLPQGISPVKQHWATWALYN [S14K] | 1.43 |
| PILRLLPQGISPVQQHWATWALYN [S14Q] | 2.12 |
| PILRLLPQGISPVTQHWATWALYN [S14T] | 1.11 |
| PILRLLPQGISPVVQHWATWALYN [S14V] | 2.62 |
| PILRLLPQGISPVYQHWATWALYN [S14Y] | 2.6 |
| PILRLLPQGISPVSEHWATWALYN [Q15E] | 2.19 |
| PILRLLPQGISPVSFHWATWALYN [Q15F] | 2.68 |
| PILRLLPQGISPVSGHWATWALYN [Q15G] | 1 |

| Variant | protein stability index |
| --- | --- |
| PILRLLPQGISPVSKHWATWALYN [Q15K] | 2.97 |
| PILRLLPQGISPVSLHWATWALYN [Q15L] | 1.94 |
| PILRLLPQGISPVSMHWATWALYN [Q15M] | 4.6 |
| PILRLLPQGISPVSNHWATWALYN [Q15N] | 2.99 |
| PILRLLPQGISPVSTHWATWALYN [Q15T] | 3.05 |
| PILRLLPQGISPVSVHWATWALYN [Q15V] | 3.31 |
| PILRLLPQGISPVSQDWATWALYN [H16D] | 2.11 |
| PILRLLPQGISPVSQEWATWALYN [H16E] | 1.34 |
| PILRLLPQGISPVSQIWATWALYN [H16I] | 3.38 |
| PILRLLPQGISPVSQKWATWALYN [H16K] | 1.94 |
| PILRLLPQGISPVSQNWATWALYN [H16N] | 2.34 |
| PILRLLPQGISPVSQPWATWALYN [H16P] | 1.45 |
| PILRLLPQGISPVSQRWATWALYN [H16R] | 3.32 |
| PILRLLPQGISPVSQHAATWALYN [W17A] | 1.72 |
| PILRLLPQGISPVSQHCATWALYN [W17C] | 2.27 |
| PILRLLPQGISPVSQHDATWALYN [W17D] | 1.79 |
| PILRLLPQGISPVSQHEATWALYN [W17E] | 2.35 |
| PILRLLPQGISPVSQHFATWALYN [W17F] | 3.63 |
| PILRLLPQGISPVSQHGATWALYN [W17G] | 1.93 |
| PILRLLPQGISPVSQHHATWALYN [W17H] | 1.57 |
| PILRLLPQGISPVSQHIATWALYN [W17I] | 3.9 |
| PILRLLPQGISPVSQHKATWALYN [W17K] | 2.16 |
